# Test results reported in publication PMC4537280, “ApiAP2 Factors as Candidate Regulators of Stochastic Commitment to Merozoite Production in Theileria annulata”.
# Residue numbers refer to the chain shown, from its start.
# T1: GST-TA12015D (TaAP2.me2 AP2 domain) (Theileria annulata (strain Ankara, …, UniProt Q4UDT1))
# T1 sequence: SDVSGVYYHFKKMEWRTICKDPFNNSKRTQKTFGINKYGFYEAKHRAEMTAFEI
# T2: GST-TA16485D (TaAP2.me3 AP2 domain) (Theileria annulata (strain Ankara, …, UniProt Q4UIX2))
# T2 sequence: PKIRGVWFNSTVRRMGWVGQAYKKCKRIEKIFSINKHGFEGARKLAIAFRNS
# B1: Bio-2x(A)CACAC(A) (dsDNA)
# DNA 1: GATACACACTTATGCACACACA
# DNA 2: TGTGTGTGCATAAGTGTGTATC
# B2: Bio-GTGTAC (dsDNA)
# DNA 1: AATATTATAATAGTCGTAGCCATCAATGTGTACACATGGTAATATAGATTTTCGTTTATATT
# DNA 2: AATATAAACGAAAATCTATATTACCATGTGTACACATTGATGGCTACGACTATTATAATATT
# B3: Bio-GTGTAC-MUT (dsDNA)
# DNA 1: B2 DNA 1 with G28A, G30A, C33A, C35A
# DNA 2: B2 DNA 2 with G28T, G30T, C33T, C35T
# B4: Bio-TCTATA / C-box probe (dsDNA)
# DNA 1: ATTGTTAATTCCCCATCCAGATCTATAAAA
# DNA 2: TTTTATAGATCTGGATGGGGAATTAACAAT
# B5: Bio(A)CACAC(A)-MUT (dsDNA)
# DNA 1: GATATAGAATTATGCAGAATAT
# DNA 2: ATATTCTGCATAATTCTATATC
# Assays:
# Settings in all cases: protein: recombinant; tags: N-terminal GST (pGEX5x-2); label: 5' biotin on strand 1; blunt
# [1] = target: GST-TA11145D (TaAP2.me1 AP2 domain) (Theileria annulata (strain Ankara, …, UniProt Q4U8H9)); experiment: EMSA; LightShift chemiluminescent EMSA kit components plus 1 ul 50% glycerol and 1 ul 1% NP40, about 0.7 ug GST fusion protein, 20 fmol biotinylated probe; competitor preincubation on ice; 4% polyacrylamide gel, 100 V, 4 C; pH and salt of binding not stated (oligo annealing in 20 mM Tris-HCl pH 7.6, 50 mM NaCl)
# [2] = target: GST-TA13515D (TaAP2.g AP2 domain) (Theileria annulata (strain Ankara, …, UniProt Q4UEK3)); experiment: as above
# [3] = target: T1, GST-TA12015D (TaAP2.me2 AP2 domain); experiment: EMSA; 0.6-1.6 ug protein; LightShift chemiluminescent EMSA kit components plus 1 ul 50% glycerol and 1 ul 1% NP40, about 0.7 ug GST fusion protein, 20 fmol biotinylated probe; competitor preincubation on ice; 4% polyacrylamide gel, 100 V, 4 C; pH and salt of binding not stated (oligo annealing in 20 mM Tris-HCl pH 7.6, 50 mM NaCl)
# [4] = target: T2, GST-TA16485D (TaAP2.me3 AP2 domain); experiment: EMSA; LightShift chemiluminescent EMSA kit components plus 1 ul 50% glycerol and 1 ul 1% NP40, about 0.7 ug GST fusion protein, 20 fmol biotinylated probe; competitor preincubation on ice; 4% polyacrylamide gel, 100 V, 4 C; pH and salt of binding not stated (oligo annealing in 20 mM Tris-HCl pH 7.6, 50 mM NaCl)
Binder,binding result [1],binding result [2],further results
B1,binds,–,–
B2,–,binds,–
B3,–,no binding,–
B4,–,–,binding result [3]: no binding; binding result [4]: binds
B5,no binding,–,–
